Laboratory results from the DeepSol protein solubility set.

Assay: soluble on expression in E. coli; label from the status in PepcDB or PDB records

Soluble on expression in E. coli, not soluble:
MGSDKIHHHHHHEQKTATSEMTDVSRLMPVKIKQTVKGQEEEMLIDTVKEANRKNIKFSIAGAQHSMGGHTYYEDGIVLDMTGYNKILSLDQEKKTIRVQSGATWNDIQKYVNPYGLAVKVMQSQNIFTIGGSLSANAHGRDIRYGSLIDTVKSFRLLKADGMIITVTPKDDLFTAVIGGYGLFGVILDVTLELTDDELYVMKTEKMNYSTYSDYFSKHVKGNPDVRMHLARISTAKKGFLKDMYVTNYVLANHQDQLSSYSELKEDEYTGATKFALGLSRRYEWGRNWLWDTQQSYFLSQNGTEISRNNVMRSESKFLEYENNDNTDVLQEYFVPVKEYGSYIDDLRQTLSDEDLNLLNITIRYVQKNEKADLSYAKDDMFSLVLLINEGFSKEDQADTARIIRRMTDVAIKHGGSYYLPYMTYQTKAQMRQAYPKSEAFFQKKRTYDPDERFMNYFYQRYK, MGSDKIHHHHHHEYKNVNEIIVEELEIPVPLGDPFILLHNGTYYAYGTHSDEGIEVYISDNLKTWKYKGLALNKKDSWADRWFWAPEVYEVNGKFYMYYSADEHICVAVADSPVGPFIQNKQEPMIVEEKCIDNSFFMDDDGTPYLSFVRFNDGNNVWIAELEKDLITLKKETMRPCIHVSQAWEEVWPRVNEGSYILKHNGIYYMTYSANSYESPFYGVGCATATDIMGEWAKYDENPLLQNPGGLVGVGHSAMFTDKEGKLRIVFHAHKDKSNIHPRAMYIGTVNFENVNGTDRMRISKEYITPKLLQ, MGSDKIHHHHHHFACKEETDLYFNGDITVIKSFDNDTLLSPVKVELEDIYDGSVLAYDSLLFFTSHKYSDCWMYVFSVNSGKHIASLCPKGQGPNDYLSCKNSQQFIRENGELKLWVRDNAKSARLLNITKSIETGATVCDAIIPMDWNKYFVYPATTLFFLKDGYILGQNQCEEQYSKGKEYIPRKFYLYKDSLGNKVKEYKLFNRPVILKDDKYDVLSGMFYANHSYIHPDQTKVAIAMQRVAQITILDVKSGKQVGYRMDDTLDFSDIEQNLECIRYYYTSAAVNSRYIFALYIDQAEMGGKYPFKSKTVHVFNWEGRPVYKIQLDKEISWITLDPQNNRLYAQGEDDSIWAYDVSWLSK, MGSDKIHHHHHHFLDELPDNRTELNSEQKIAKMLVSAYPEGSANELFELYSDNTDDNSARYSYYKLSEEECYNWKDTQEEYQDTPTNLWETHYIAIASANMALEEIEKRGNPESLMPQRGEALVCRAYNHFVLANIFCNAYNTHASQELGIPYMTKVETTVQPQYGRGTLQETYEKIEKDLLDGMALISDDSYSVPKYHFTRKAAYAFAARFYLYYMKPDFSNCDEVIKYADRVLGSDPAAELRDWEALGKLSANDNVQPDAYIASTSKANLLIGSTVSNWGIILSNYMTGKRYLHNKLIASYETSRSSGLWGIPDRMYMQPFTTSGYECSMLRKGGYYAGDYLYYMPVIFSTDETLLCRAEAYTLKKNYPMAAADLTTWEKAYTSNKQTLTPGMINEYYDKMDYYNPTQNPTPKKKLQPDFTIESGIQENFIHCILHMRRIATLHEGLRWPDIKRYGIVIYRRSIANNNIVVTDEMPVNDARRAMQIPKSVVLAGMQPNPRTEN, MGSDKIHHHHHHGCDDNTGGLGLGMFPGNDQNIKGKLSTFDVTTESVKTGDIYAKTNIGYIGKFTDETFGTYQAGFLAQLNCPDGLTFPEPYKEVTDASGNVISATGRMVVDDKDPENKDVTFIKDGNQIIGNIRAVELYLWYDSYFGDSLTACRLSVYELGGNGKETLNLDNAYYTDINPEDFYDSQNILGTKAYTAVDLSVKDSIRNLSTYVPSVHIAFKEDIATRVGGNILTAARKAKNADKEFNSQLFREAFQGIYVKSDYGDGTVLYIDQPQMNVVYKCYATDSITGKKLQKKDGSGKDSTYYSYRVFATTREVIQANQLKNDPERIDALIKEDKNTYLKSPAGIFTEATLPISDIQNELTGDTLNAVKLTFTNYNQTGDKKFGMAIPSTVMLVRKKFQDSFFKDNKLSDGVSSYLTSHTSSTNQYVFSNITKLVNACIAEKEEAKKNAGSSWDETKWLQENPDWNKVVLIPVLVTYDSSNTTTGQANIIRIQHDLKPGYVRLKGGSLGKTNPDYKLKLEVISTDFGLTTKSN, MGSDKIHHHHHHGIDNGTPKSKNEIGVNTIVKKSSRAAVTSNSSFTSFKLHAYIVKSNDIATSGWGNAYMDGIEYKGGQGSWATTSGTFYWPITEMQFFGYTNDVTYTAPASSNAYPTISYTLPDTPADQKDIIVAYSKDVTKPSDNTLNLTFQHILTRINFAVKLVDSSYTYTVESITITGAKGGTATYTFGGTEGKGGNWNITGSAPASGYSYTFDNTVTAKDGIYDYTQNDNSLMLYPQSLTDAKIIVKYKTEKDNATFFNDSKEVSLTGEWTNGQSIRYILTLPVGAEEMSVNTTYDENWDATDNEQTPKNPAS, MGSDKIHHHHHHGKEEEGPIPTDRQVPIGVMEASLSTRVSTRGVINTDIYKLGIFRTNANGYPPQYDAPYSYDGAAGWTATTEILVDHRSASLYAYYPYQSVSFADNTTKAILVAQIYDAAKDMCYGSATSADGSGMINNDHKGVRFIDMKHAYARLKLTFVRGTNVMSGRKCKIENIVLKNNSTNFYLQRQVDITTGTITEGTPAAEGYVHNPNVEIASGNQVYEYLLPPQSLTDNKLTISVTVDGEVRTVTVTAFGGTLNAGGYYHVTLTINDVQIVPSAGVTDNGYTSGDDPKNPIQNNTPSVV, MGSDKIHHHHHHGNDDFPAEEPKVPLEITSAFVTGDVQTRAVTPELLTSGSIGVFLEGRSGTGYDKKDNIQYDYNVGWKPKTETIYLGGEDADVCAYKKTTKLDLSAKEAVPLVSQIYDAEIDLVYATNQTVNGTSAGKSVEFTMGHAYSQIEFVFSREDYPNTCKVTEITVENANIIKTATLNLATGGYTPVTVEKVSYWTNVAKHEDGIAVPESGTVKSNVLMIPCTLANAGGTGVTLELKVDGKLMTVPIAHDKLGALTAGVIHQISLKLKGTALEISVKDTPWDNQPVDGEYNPEP, MGSDKIHHHHHHGNLEEMNIDPDNATQTHPKLLLTQICMNAFKRGTDGMYATKKVIQADGESADQYYKWTRGSFGYYDNLRNVQKMGEEAERVNAPVYTALTKFFRAYYFYELTLRFGDIPYSQALKGEKEEIYTPEYDAQEDVFAGILQELREADEILANDASVIDGDIIYNGNSTQWRKLINSFRLKVLMTLSNHTTVGNINIASEFKNIATNSPLMNSLADNGQLVYLDQQGNRYPQFNAQWSGYYMDDTFIQRMRERRDPRLFIFSAQTNKGKTEGKPIDDFSSYEGGDPAAPYSDAIIKVSEGTISPINDRFRTDPIVEPTMLMGYAELQQILAEAVVRGWISGNAQTYYEKGIRASFSFYETHAKDYAGYLNENAVAQYLKEPLVDFTQASGTEEQIERIIMQKYLVTFYQGNWDSFYEQLRTGYPDFRRPAGTEIPKRWMYPQGEYDNNGTNVETAITRQFGAGNDKINQATWWQKKS, MGSDKIHHHHHHGPASGRVEMKGESDSLSVRHGQENALSVSDEYPEGYVPVPGIRYQANYLTGNPERLDVKAALRNVRPLKLSQLGSQLDFMVFKDVKGGIFRLIPIEEGCLGVGIGGIWLLDGNLKMIRMLFRNDVDITEENGFTNFQTKRYINPDYYEKSSRTLIGVLYDQRDKKNPKSFVRLSLKDLLSASRPLTPDDIHKRAGISGNYLLGMADGYATWTRFTNDVYTFNLRGDTLCHFTIGEKVNYPPRGNGSYRSGEQATVYHYKGCPMIIMPYGNTVYRMKDASTLEPVYELDFGTLHRATGEEVVGGADVDNAYFLSDWVETDSYVFMHVEKGYDCPYARDKKQVTLYSLIYDKRSKAFFSLPQAEKTVHPCPEPDLPDGIPFWPRKGFSEEQLATFTTGWKLSKSSPEVFKRIPALQGTEKETTSLIITLK, MGSDKIHHHHHHGTISHSVEPGDNLYNLAARYMGNPHAWPDIQKLNHISNPHRLKPGTSLLIPKVSSTVTASFVHGEAWLVDDAGNTIKRIAHGDQLNEGDIVRTGQHSYLSLEFADHSVARILSNTHVRLDRIKESGLVPQGQRVIYLEQGNMDVSVTPAPKCNSQHFKVITPQAVAAVRGTRFSVGVGSVSATSVTQGKVEMQPPQPGKSRSGKMLQAGQGIAASGNGLGEVQPLLAAPDLSQLPSMLPEPELLQFDWPAVNGGSEYQYRIAQDEGMEQVLWNAASYSASATLPSLQDGEYLLAVRALDSYGIPGYEAQHRFIIHSHPSSPWLLSPQQGQPIDGNGILRCTPVEGAQGYHLQIATDDEFRELVVDSGPLDRCQYQLASLAEGDYYWRVASVNAEEEGRLGPYSQPASLTVSQDAHTLPIIAGEAYWTSTLQDARYIAQISRSPRFDTLVAEQELDSPRINIQSLPAGRYYVRLATRLENDTGPFSDARIIEVEHEDNGMDRTWFDKPRS, MGSDKIHHHHHHIRSATACSSTDNVVSMKLTEHIGRLTVMGLMLPKHRPFFKERMGMNVQKEGVGEPTMAFTPTQRLHLGAEAEVWKGEWFGKAAVRKQRRPRSWRHPNLDHRLGVRRMISEARLLIRTRKAGLSVPSVWDLDYEGGQLIIEHLEGRPLIDVLNDPATEKEVAKTTLHRVGHSVRRLHREATTHGDLSSNNILIEGEHVHLIDFGLASIEYDVERFGIDLHVLDEILGASHPQWEGAIDWVIEGYLSAEEELGPAPALQGGSVPSAKEVHTRLEDIRTRVRYH, MGSDKIHHHHHHISYPLPPEGSRLVGSAFTIAVPDNNTQPLESFAAQYGQGLSNMLEANPGVDVYLPRSGSTLTIPQQLILPDTVREGIVINVAEMRLYYYPPLGNSVEVLPIGIGQAGRETPRNWVTAVERKQEGPTWVPTANTRREYAKEGKTLPAMVPPGPDNPMGLYAIYIGRLYAIHGTNANFGIGLRVSQGCIRLRNDDIKFLFDNVPVGTRVQLIDQPVKYSVEPDGSHWLEVHEPLSRNRAEFESDRKVPLPMTSALRDFTQGPGVSPAQVEQTLQRRSGMPVNISATAAQGSL, MGSDKIHHHHHHKAFPLRTVFSEGIYYVCAEDLAPAGVGYIHSNGYHYIVYDNHVLFIKEHETIFDFVEKLSPPLFVDGLLFVPIDALKKVMEGYQMYTKGEKVLIYDSLPIVLSAAKEKNGVTITYTGTIVPDMVSVEKSMGRVRINLSPVVVSLPNVSEDIKVELEKNGLSFIVDVGNFYPDVEYSIGDGKLLFRFLLVEGFFGRLEVADGVVFERKIEEFDEGEKTVVNYLIMDPEKVTIKPVVSENGFGTIERLDEMVKRVGGIAGINGNYFDPVTKFPIGLVVIDGKPYSAMFSGRPVFAITEDNEVFIGRVIVDVTLMVKDVLFLVKGINTLGEGEVLVYTKEFSKEIPKKDDKIYFVVKDSKVSQIGYKSHAEDSEYVVSISKKYEEYLSDLKEGDEVYISLQPNIPLRIKQAVEGGPLLIQNGAPIPDAWEEKARYGGGIAYAKAPRTVIATKDGKLWFLVFEGYNHITRGLTYDELVDFLVSRGFEDAMCVDGGSSSVMAVAGSLFGRTENSTAAIPVGIVVWEKKKTEVGK, MGSDKIHHHHHHKDDADAPLRFYDSKYEVPMGGRRYLGIESGNGDYSLEIGNPRIASAGIESGWSGVPAGRMIYISGILTGSTYLKVTDNATQETLTLPIKVVDYYEDLNLIHGSSSLRPNGDENLLPGVDDIFLVSNAARDAYFFKQGQRTAFSSGLELITKGTYALKQEDENKATLTLTFSLDASPATEHHFTVWGNTYLLHRLDKNLHLNWGTPPIGETRTSPAPPPAYTLEEITEGAEPGTGRQVGFILNYKEIPTGILP
